{
  "source": "paper PMC9320966",
  "about": "(Arthritis & Rheumatology (Hoboken, N.j.), 2022)",
  "binders": {"B1": {"name": "murine monoclonal anti-COMP antibody 15A11 (antibody, V domains shown)", "VH": "QVQLQQSGAELAKPGASVNLSCKASGYTFTNYWVHWVKQRPGQGLEWIGYINPSNTYISYNQQFKDKATLTADKSSSTAYMQLSRLTYEDSSVYYCARGGFFYDYDVWYFDVWGTGTTVTVSS", "VL": "DVLMTQIPLSLPVSLGDQASISCRSSQNIVHSNGNTYLEWYLQKPGQSPKLLIYKVSNRFSGVPDRFSGSGSGTDFTLKISRVEAEDLGVYYCFQGSHVPFTFGSGTKLEIK"}},
  "target": "COMP in mouse joint cartilage (Mus musculus, UniProt Q9R0G6)",
  "sequence (Q9R0G6 20-755)": "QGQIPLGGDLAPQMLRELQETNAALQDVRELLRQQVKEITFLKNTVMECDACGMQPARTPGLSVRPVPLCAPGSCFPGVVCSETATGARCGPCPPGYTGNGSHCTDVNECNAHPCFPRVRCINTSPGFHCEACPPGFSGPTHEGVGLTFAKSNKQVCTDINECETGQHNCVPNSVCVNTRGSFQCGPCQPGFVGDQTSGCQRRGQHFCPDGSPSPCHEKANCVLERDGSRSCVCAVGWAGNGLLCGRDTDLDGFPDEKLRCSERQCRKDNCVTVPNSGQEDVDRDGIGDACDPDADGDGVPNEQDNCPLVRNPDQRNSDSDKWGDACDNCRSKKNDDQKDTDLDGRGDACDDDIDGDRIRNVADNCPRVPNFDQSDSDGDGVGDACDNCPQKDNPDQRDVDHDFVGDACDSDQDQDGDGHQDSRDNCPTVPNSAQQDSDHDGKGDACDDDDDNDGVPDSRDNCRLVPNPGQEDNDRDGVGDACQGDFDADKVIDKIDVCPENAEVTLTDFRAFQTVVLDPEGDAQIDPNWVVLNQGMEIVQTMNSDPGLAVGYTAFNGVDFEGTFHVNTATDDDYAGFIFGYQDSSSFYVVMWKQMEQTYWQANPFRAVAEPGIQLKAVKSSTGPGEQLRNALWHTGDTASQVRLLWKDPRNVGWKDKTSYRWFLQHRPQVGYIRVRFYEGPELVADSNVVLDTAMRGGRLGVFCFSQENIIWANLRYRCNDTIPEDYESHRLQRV",
  "test": "immunostaining of cells or tissue",
  "data": [
    {"binder": "B1", "values": [
      {"measurement": "binding result", "value": "binds"}
    ]}
  ]
}
